Data taken from patent US20240400701A1 (LANOVA MEDICINES DEVELOPMENT, published 2024).

How the values were obtained:
[1] = target: T1, human AMHRII (anti-Mullerian hormone receptor type 2) (human, UniProt Q16671 18-573); assay: cell-based or functional assay
T1 sequence (looked up): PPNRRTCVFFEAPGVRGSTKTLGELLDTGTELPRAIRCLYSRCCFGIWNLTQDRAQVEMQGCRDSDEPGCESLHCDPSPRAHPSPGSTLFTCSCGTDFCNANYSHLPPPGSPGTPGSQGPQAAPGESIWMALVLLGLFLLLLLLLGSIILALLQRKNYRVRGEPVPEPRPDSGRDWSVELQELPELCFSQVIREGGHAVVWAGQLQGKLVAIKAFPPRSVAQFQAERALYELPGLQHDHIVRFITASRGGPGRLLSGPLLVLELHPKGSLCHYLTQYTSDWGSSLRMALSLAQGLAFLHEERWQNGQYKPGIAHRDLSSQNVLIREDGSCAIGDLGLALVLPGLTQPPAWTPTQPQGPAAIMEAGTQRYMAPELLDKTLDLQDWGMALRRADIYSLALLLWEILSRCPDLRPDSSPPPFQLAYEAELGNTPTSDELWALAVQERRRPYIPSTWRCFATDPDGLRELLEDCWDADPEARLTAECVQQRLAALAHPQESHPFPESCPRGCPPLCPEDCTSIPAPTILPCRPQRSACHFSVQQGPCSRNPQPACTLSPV

[2] = target: T1, human AMHRII (anti-Mullerian hormone …); assay: FACS on Rko cells over-expressing human AMHR2
Protocol: Similarly, the binding of these antibodies was tested with Rko cells that over-expressed AMHR2. 100 μl of 1×10⁶ cells/ml of cells were incubated with the antibodies in 3-fold serial dilutions starting from 300 nM to 0.002 nM for 30 minutes on ice. After being washed with 200 μl of FACS buffer twice, cells were incubated with secondary antibody for 30 minutes on ice. Cells were washed with 200 μl of FACS buffer twice and analyzed by FACS.

[3] = target: T1, human AMHRII (anti-Mullerian hormone …); assay: FACS on CHO-K1 cells over-expressing human AMHR2
Protocol: CHO-K1 cells that over-expressed AMHR2 were harvested from flasks. 100 μl of 1×10⁶ cells/ml of cells were incubated with primary chimeric antibodies (or with positive reference antibody Ref.Ab) in 3-fold serial dilutions starting from 300 nM to 0.002 nM for 30 minutes on ice. After being washed with 200 μl of FACS buffer twice, cells were incubated with secondary antibody for 30 minutes on ice. Cells were washed with 200 μl of FACS buffer twice and analyzed by FACS.

[4] = target: T1, human AMHRII (anti-Mullerian hormone …); assay: FACS on Rko cells over-expressing human AMHR2; remark: listed apart in the source
Protocol: Rko cells over-expressing AMHR2 were harvested from flasks. 100 μl of 1×10⁶ cells/ml of cells were incubated with primary PTM antibodies in 3-fold serial dilutions starting from 300 nM to 0.001 nM for 30 minutes on ice. After being washed with 200 μl of FACS buffer twice, cells were incubated with secondary antibody for 30 minutes on ice. Cells were washed with 200 μl of FACS buffer twice and analyzed by FACS.

[5] = target: T1, human AMHRII (anti-Mullerian hormone …); assay: FACS on CHO-K1 cells over-expressing human AMHR2; remark: listed apart in the source
Protocol: (§1) CHO-K1 cells over-expressed AMHR2 were harvested from flasks. 100 μl of 1×10⁶ cells/ml of cells were incubated with the humanized antibodies in 3-fold serial dilutions starting from 300 nM to 0.001 nM for 30 minutes on ice. After being washed with 200 μl of FACS buffer twice, cells were incubated with secondary antibody for 30 minutes on ice. Cells were washed with 200 μl of FACS buffer twice and analyzed by FACS.

[6] = target: T1, human AMHRII (anti-Mullerian hormone …); assay: FACS on CHO-K1 cells over-expressing human AMHR2; remark: listed apart in the source
Protocol: as §1

[7] = target: T1, human AMHRII (anti-Mullerian hormone …); assay: FACS on CHO-K1 cells over-expressing human AMHR2; remark: listed apart in the source
Protocol: as §1

B1: xi103C5G10F9 hIgG1 (antibody, V domains shown)
VH: DVQLQESGPGLVKPSQSLSLTCTVTGYSITSDYAWNWIRQFPGNKLEWMGYISYSGSTSYNPSLKSRISITRDTSKNQFFLQLNSVTTEDTATYYCARSRYSWFDYWGQGTLVTVSA
VL: DIVLTQSPTSLAVSLGQRATLSCSASESVDTYGNSFMHWYQQKPGQSPKLLIYRASSLESGIPARFSGSGSRTDFTLTINPVEAADVATYYCQQSNEDPYTFGGGTKLEIK
notes: Murine variable domains in human chimeric format, human IgG1; also called 103C5G10F9 (chimeric)
[1]
  ADCC reporter bioassay, EC50: 0.39 nM
  ADCC reporter bioassay, Top (MFI): 13900 MFI
[2]
  EC50: 0.43 nM
  Top (MFI): 8580 MFI
[3]
  EC50: 1.08 nM
  Top (MFI): 124000 MFI

B2: xi114A2B5 hIgG1 (antibody, V domains shown)
VH: DVQLQESGPGLVKPSQSLSLTCTVTGYSITSDYAWNWIRQFPGNKLEWMGYISYSGSTSYNPSLKSRISITRDTSKNQFFLQLNSVTTEDTATYYCARSRYSWFDYWGQGTLVTVSA
VL: DIVLTQSPASLAVSLGQRATLSCRASESVDTYGNSFMHWYQQKPGQSPKLLIYRASSLESGIPARFSGSGSRTDFTLTINPVEAADVATYYCQQSNEDPYTFGGGTKLEIK
notes: Murine variable domains in human chimeric format, human IgG1; also called 114A2B5 (chimeric)
[1]
  ADCC reporter bioassay, EC50: 0.34 nM
  ADCC reporter bioassay, Top (MFI): 14100 MFI
[2]
  EC50: 0.52 nM
  Top (MFI): 8330 MFI
[3]
  EC50: 1.04 nM
  Top (MFI): 127000 MFI

B3: xi35D4G3 hIgG1 (antibody, V domains shown)
VH: QVRLLQSGAALVKPGASAKMSCKASGYTFTDYWVSWVKQSHGKSLEWIGEIYPDNGITNFNEKFKGKATLTVDKSTRTAYMELSRLTSEDSAIYYCTRQRDYWGQGVMVTVSS
VL: DVVLTQTPGSLSVTLGDQVSISCRSSQSLKYGDGYTYLEWYLQKPGQSPQLLFYGVSNRFSGVPDRFIGSGSGTDFTLKISRVEPEDLGVYYCFQATHDPNTFGTGTKLDLK
notes: Murine variable domains in human chimeric format, human IgG1; also called 35D4G3 (chimeric)
[1]
  ADCC reporter bioassay, EC50: 0.25 nM
  ADCC reporter bioassay, Top (MFI): 14500 MFI
[2]
  EC50: 0.49 nM
  Top (MFI): 8290 MFI
[3]
  EC50: 0.11 nM
  Top (MFI): 114000 MFI

B4: 31D9B3 H1L2 hIgG1 (antibody, V domains shown)
VH: QVQLVQSGAEVKKPGASVKVSCKASGYTFTDYWVSWVRQAPGQGLEWMGEIYPKNGVSNFNEKFKGRVTMTTDTSTSTAYMELRSLRSDDTAVYYCARQRDYWGQGTLVTVSS
VL: DVVMTQSPLSLPVTLGQPASISCRSSQSLEYGDGYTYLEWYLQRPGQSPRLLIYGVSNRFSGVPDRFSGSGSGTDFTLKISRVEAEDVGVYYCFQATHDPNTFGQGTKLEIK
notes: Humanized, human IgG1; also called 31D9B3 H1L2 hlgG1; 31D9B3 VH1-VL2 hlgG1
[4]
  EC50: 1.21 nM
  Top (MFI): 18300 MFI
[5]
  EC50: 1.49 nM
  Top (MFI): 36200 MFI
[6]
  EC50: 1.06 nM
  Top (MFI): 26700 MFI

B5: 31D9B3 H3L4 hIgG1 (antibody, V domains shown)
VH: QVQLVQSGAEVKVPGASVKMSCKASGYTFTDYWVSWVRQSPGQGLEWIGEIYPKNGVSNFNEKFKGRVTLTVDKSTSTAYMELRSLRSDDTAVYYCTRQRDYWGQGVLVTVSS
VL: DVVLTQSPLSLPVTLGQPASISCRSSQSLEYGDGYTYLEWYLQRPGQSPQLLIYGVSNRFSGVPDRFIGSGSGTDFTLKISRVEPEDVGVYYCFQATHDPNTFGAGTKLEIK
notes: Humanized, human IgG1; also called 31D9B3 H3L4 hlgG1
[7]
  EC50: 1.01 nM
  Top (MFI): 36400 MFI

B6: 31D9B3 H4L3 hIgG1 (antibody, V domains shown)
VH: QVQLVQSGAEVVKPGASVKMSCKASGYTFTDYWVSWVKQSPGQGLEWIGEIYPKNGVSNFNEKFKGKATLTVDKSTSTAYMELRRLRSDDTAVFYCTRQRDYWGQGVLVTVSS
VL: DVVMTQSPLSLPVTLGQPASISCRSSQSLEYGDGYTYLEWYLQRPGQSPRLLIYGVSNRFSGVPDRFIGSGSGTDFTLKISRVEAEDVGVYYCFQATHDPNTFGAGTKLEIK
notes: Humanized, human IgG1; also called 31D9B3 H4L3 hlgG1
[7]
  EC50: 0.83 nM
  Top (MFI): 36000 MFI

B7: 31D9B3 H4L4 hIgG1 (antibody, V domains shown)
VH: QVQLVQSGAEVVKPGASVKMSCKASGYTFTDYWVSWVKQSPGQGLEWIGEIYPKNGVSNFNEKFKGKATLTVDKSTSTAYMELRRLRSDDTAVFYCTRQRDYWGQGVLVTVSS
VL: DVVLTQSPLSLPVTLGQPASISCRSSQSLEYGDGYTYLEWYLQRPGQSPQLLIYGVSNRFSGVPDRFIGSGSGTDFTLKISRVEPEDVGVYYCFQATHDPNTFGAGTKLEIK
notes: Humanized, human IgG1; also called 31D9B3 H4L4 hlgG1
[7]
  EC50: 0.75 nM
  Top (MFI): 37200 MFI

B8: 31D9B3 H4L2 hIgG1 (antibody, V domains shown)
VH: QVQLVQSGAEVVKPGASVKMSCKASGYTFTDYWVSWVKQSPGQGLEWIGEIYPKNGVSNFNEKFKGKATLTVDKSTSTAYMELRRLRSDDTAVFYCTRQRDYWGQGVLVTVSS
VL: DVVMTQSPLSLPVTLGQPASISCRSSQSLEYGDGYTYLEWYLQRPGQSPRLLIYGVSNRFSGVPDRFSGSGSGTDFTLKISRVEAEDVGVYYCFQATHDPNTFGQGTKLEIK
notes: Humanized, human IgG1; also called 31D9B3 H4L2 hlgG1
[7]
  EC50: 0.84 nM
  Top (MFI): 36200 MFI

B9: 31D9B3 H4L1 hIgG1 (antibody, V domains shown)
VH: QVQLVQSGAEVVKPGASVKMSCKASGYTFTDYWVSWVKQSPGQGLEWIGEIYPKNGVSNFNEKFKGKATLTVDKSTSTAYMELRRLRSDDTAVFYCTRQRDYWGQGVLVTVSS
VL: DVVMTQSPLSLPVTLGQPASISCRSSQSLEYGDGYTYLEWFQQRPGQSPRRLIYGVSNRFSGVPDRFSGSGSGTDFTLKISRVEAEDVGVYYCFQATHDPNTFGQGTKLEIK
notes: Humanized, human IgG1; also called 31D9B3 H4L1 hlgG1
[7]
  EC50: 2.18 nM
  Top (MFI): 16100 MFI

B10: 31D9B3 H3L3 hIgG1 (antibody, V domains shown)
VH: QVQLVQSGAEVKVPGASVKMSCKASGYTFTDYWVSWVRQSPGQGLEWIGEIYPKNGVSNFNEKFKGRVTLTVDKSTSTAYMELRSLRSDDTAVYYCTRQRDYWGQGVLVTVSS
VL: DVVMTQSPLSLPVTLGQPASISCRSSQSLEYGDGYTYLEWYLQRPGQSPRLLIYGVSNRFSGVPDRFIGSGSGTDFTLKISRVEAEDVGVYYCFQATHDPNTFGAGTKLEIK
notes: Humanized, human IgG1; also called 31D9B3 H3L3 hlgG1
[7]
  EC50: 1.3 nM
  Top (MFI): 38000 MFI

B11: 31D9B3 H2L4 hIgG1 (antibody, V domains shown)
VH: QVQLVQSGAEVVKPGASVKVSCKASGYTFTDYWVSWVRQAPGQGLEWIGEIYPKNGVSNFNEKFKGRVTMTVDTSTSTAYMELRSLRSDDTAVYYCTRQRDYWGQGTLVTVSS
VL: DVVLTQSPLSLPVTLGQPASISCRSSQSLEYGDGYTYLEWYLQRPGQSPQLLIYGVSNRFSGVPDRFIGSGSGTDFTLKISRVEPEDVGVYYCFQATHDPNTFGAGTKLEIK
notes: Humanized, human IgG1; also called 31D9B3 H2L4 hlgG1
[5]
  EC50: 1.67 nM
  Top (MFI): 39200 MFI

B12: 31D9B3 H3L1 hIgG1 (antibody, V domains shown)
VH: QVQLVQSGAEVKVPGASVKMSCKASGYTFTDYWVSWVRQSPGQGLEWIGEIYPKNGVSNFNEKFKGRVTLTVDKSTSTAYMELRSLRSDDTAVYYCTRQRDYWGQGVLVTVSS
VL: DVVMTQSPLSLPVTLGQPASISCRSSQSLEYGDGYTYLEWFQQRPGQSPRRLIYGVSNRFSGVPDRFSGSGSGTDFTLKISRVEAEDVGVYYCFQATHDPNTFGQGTKLEIK
notes: Humanized, human IgG1; also called 31D9B3 H3L1 hlgG1
[7]
  EC50: 3.01 nM
  Top (MFI): 19600 MFI

B13: 31D9B3 H3L2 hIgG1 (antibody, V domains shown)
VH: QVQLVQSGAEVKVPGASVKMSCKASGYTFTDYWVSWVRQSPGQGLEWIGEIYPKNGVSNFNEKFKGRVTLTVDKSTSTAYMELRSLRSDDTAVYYCTRQRDYWGQGVLVTVSS
VL: DVVMTQSPLSLPVTLGQPASISCRSSQSLEYGDGYTYLEWYLQRPGQSPRLLIYGVSNRFSGVPDRFSGSGSGTDFTLKISRVEAEDVGVYYCFQATHDPNTFGQGTKLEIK
notes: Humanized, human IgG1; also called 31D9B3 H3L2 hlgG1
[7]
  EC50: 1.05 nM
  Top (MFI): 37900 MFI
